Data on five molecules can be found in patent US20260209370A1 (RADIANT BIOTHERAPEUTICS, published 2026).

Test [1] concerns the target 4-1BB on engineered 4-1BB-expressing effector cells (luciferase reporter assay) (UniProt Q07011). The test can be described thus: cell-based or functional assay.
In test [2] the target is T1, recombinant mouse 4-1BB protein (mouse, UniProt P20334 24-187).
T1 sequence (looked up): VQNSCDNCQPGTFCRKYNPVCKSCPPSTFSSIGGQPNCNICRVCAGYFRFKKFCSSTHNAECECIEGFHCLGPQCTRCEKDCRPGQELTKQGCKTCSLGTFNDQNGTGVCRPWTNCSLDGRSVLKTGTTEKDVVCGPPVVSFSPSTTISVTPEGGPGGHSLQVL
The test can be described thus: ELISA, plates coated with recombinant 4-1BB, detection with goat α-human Fcγ-HRP.
Description: Cross-reactivity was assessed using ELISA. Briefly, plates were coated with recombinant 4-1BB proteins derived from either human, cynomolgus monkey, or mouse. Plates were then washed, blocked, and incubated with bovine serum albumin (BSA), along with a series of known concentrations of α-4-1BB IgGs/MBs. The plate was then washed and incubated with a Goat α-human Fcy-HRP secondary antibody to detect bound IgG/MB. The plates were then washed again and developed with TMB substrate to detect HRP and read at OD 450 nm.

In test [3] the target is 4-1BB on engineered 4-1BB-expressing effector cells (luciferase reporter assay) (UniProt Q07011 24-255, limits assumed). Nature of the test: cell-based or functional assay.

In the case of “Urelumab MB (effector-silent α-4-1BB Multabody displaying scFabs based on urelumab)”, in test [1], the EC50 (nM) + Fc (4-1BB agonism, luciferase reporter, with FcγRIIb CHO-K1 cells) came out at 0.079 nM and the EC50 (nM) - Fc (4-1BB agonism, luciferase reporter, without Fc crosslinking) was 0.087 nM.

B1: effector silent α-4-1BB (AG10058; Fab #3) MB (protein, part only; not given: Fab constants, linkers, ferritin carriers, not shown: another chain or arm of the molecule; a dimerising Fc or GST; large carriers; small tags and cut ends)
VH: EVQLVESGGGLVQPGGSLRLSCAASGFSLSTSGVGVGWIRQAPGKGLEWLALIDWDDDKYYSPSLKSRLTISRDNSKNTLYLQLNSLRAEDTAVYYCARGGSDTVLGDWFAYWGQGTLVTVSS
VL: DIQLTQSPSSLSASVGDRVTITCRASQSVSPYLAWYQQKPGKAPKLLIYDASSLESGVPSRFSGSGSGTDFTLTISSLQPEDFATYYCQQGYSLWTFGQGTKVEIK
modifications: Self-assembled ferritin nanocage (Multabody) made from scFab-hFTL, scFab-N_hFTL and scFc(LLRAL)-C_hFTL fusions, with genes mixed 2:1:1. The letters do not carry this multivalent display.
Turning to B1, in test [1], the EC50 (nM) + Fc (4-1BB agonism, luciferase reporter, with FcγRIIb CHO-K1 cells) turned out to be 0.019 nM and the EC50 (nM) - Fc (4-1BB agonism, luciferase reporter, without Fc crosslinking) stood at 0.02 nM.

B2: AG10058 IgG (IgG4; parent IgG of Fab #3) (antibody, V domains shown)
VH: B1 VH
VL: B1 VL
notes: also called Fab #3 IgG
Regarding B2, the binding result in test [2] was “binds”. Moreover, the “EC50 (nM) + Fc (4-1BB agonism, luciferase reporter, with FcγRIIb CHO-K1 cells)” value (from here on “EC50 (nM) + Fc”) in test [3] stood at 0.346 nM.

B3: Urelumab IgG4 (antibody, V domains shown)
VH: QVQLQQWGAGLLKPSETLSLTCAVYGGSFSGYYWSWIRQSPEKGLEWIGEINHGGYVTYNPSLESRVTISVDTSKNQFSLKLSSVTAADTAVYYCARDYGPGNYDWYFDLWGRGTLVTVSS
VL: EIVLTQSPATLSLSPGERATLSCRASQSVSSYLAWYQQKPGQAPRLLIYDASNRATGIPARFSGSGSGTDFTLTISSLEPEDFAVYYCQQRSNWPPALTFGGGTKVEIK
Take B3: in test [3], the “EC50 (nM) + Fc” value was 0.25 nM and the “EC50 (nM) - Fc (4-1BB agonism, luciferase reporter, without Fc crosslinking)” value stood at 0.442 nM.

B4: NM21 IgG1 (parent IgG of Fab #1) (antibody, V domains shown)
VH: EVQLVESGGGLVQPGGSLRLSCAASGFSFSANYYPCWVRQAPGKGLEWIGCIYGGSSDITYDANWTKGRFTISRDNSKNTVYLQMNSLRAEDTAVYYCARSAWYSGWGGDLWGQGTLVTVSS
VL: DIQMTQSPSSLSASVGDRVTITCQASQSISNRLAWYQQKPGKAPKLLIYSASTLASGVPSRFSGSGSGTDFTLTISSLQPEDFATYYCQSTYYGNDGNAFGTGTKVTVLG
Consider B4, for which, in test [3], the “EC50 (nM) + Fc” value was found to be 0.258 nM.
